Data: the supplement of paper PMC12764529
± gives the half width of the 95% confidence interval.

Test: folding stability dG unfold from trypsin proteolysis; higher = more stable
Outline: (§1)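 Unfolding free energy was derived, per protease or combined, by relating Bayesian-fitted K50 values from sequencing counts to a sequence-predicted unfolded-state K50 and a shared folded-state K50. The underlying digests exposed cysteine-free mini-proteins under 80 residues, in a PA-tagged cDNA display construct, to trypsin and chymotrypsin at 11 threefold-diluted concentrations and to a no-protease condition. A filter kept only designs with AlphaFold2 dimer inter-PAE above 15.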

Row | Sequence | folding stability dG unfold
1 | SAGGSAGGSMSKPVKITTTRDPNSNVITIQVESEEDVIEFAKKKGINIKIEPTSENTYKLTLESAGGSAGGS [r12_810_JUSTAS] | 0.0305 ± 0.079 kcal/mol
2 | SAGGSAGGSDFPVKILEVEFHPNGSITIVIQAPDGWYIKATFHVPPNGNVKMSIELIPDPDAISAGGSAGGS [r20_23_TrROS] | 3.36 ± 0.17 kcal/mol
3 | SAGGPMRRVKVEIKDPDGGKIEIDDVYVPDNSVWAKIFLPDLGREIPFPFDTPDQAVEWIKDFVLQLSAGGS [r16_736_TrROS] | 0.482 ± 0.099 kcal/mol
4 | SAKMVVLKAYFKGDGDEIKEIADAIDFPYTIEKIPDYPDYYIATFVFPTEEKAPEWEKALKEKGYIVEGSAG [r14_745_TrMRF] | 1.88 ± 0.04 kcal/mol
5 | SAGGSAGGSAGGEEKEVYLVRFRRPDGSEVTVVAPWEDLEEIVKSLPEAVEVEVEKAPLSAGGSAGGSAGGS [r10_437_TrMRF] | 1.58 ± 0.042 kcal/mol
6 | SFNISVSVEPDDDKYKVTIWIQVDPEEFPGQPPTPSVIEEIARELARDWGIKEVEIEPPPNGYYRHTFPLSA [r9_883_TrROS] | 1.33 ± 0.032 kcal/mol
7 | SAGGSAGGSAGKIELTNIQVWPGPNGRPWISMTISFPDGPVTIWIPFDNPDNIEIEIKPGSAGGSAGGSAGG [r17_64_TrROS] | 2.63 ± 0.1 kcal/mol
8 | SAGGSAGGSAPRVRYRRRVLVYFPADGSVVPVVLEVSPGPLTLRLDLPAASFPPVRIAPLGSAGGSAGGSAG [r3_454_TrMRF] | 1.28 ± 0.066 kcal/mol
9 | SAGGKKIEIKEGDTVKLKNATITLNGKTFKIKDAEAKVVKVDKKKKKVIIEITLKNGKKETFVFDIKSAGGS [r8_215_TrROS_Hall] | 2.4 ± 0.13 kcal/mol
10 | SAGGSAGGSAGEFEIIIPPGVAEERPELLEEIRDRFKPLGLEVEVEYIPGEGYVRVKVKGSAGGSAGGSAGG [r11_357_TrMRF] | 1.36 ± 0.061 kcal/mol
11 | SAGGSAGGSAGDPVLTVTLLDDNHPVTLTYHPGEKTVTVSVYPLKSGKVLGTVTVPASELSAGGSAGGSAGG [r11_231_TrMRF] | -1.45 ± 0.71 kcal/mol
12 | SAGGSAMVLVRIKLKHPEREEVIEVPAGELLEILEHPELNEHWEIVEIEAREVPPEFVEPEELEEESAGGSA [r15_460_TrMRF] | 0.85 ± 0.087 kcal/mol
13 | SAGYEWVRELAKKKGFKDIKIEDVQPQRPPDGMEYMHVRIEVQHPGKKREVDIWMRPDNIEEALEQALKSAG [r5_549_TrROS] | 0.402 ± 0.096 kcal/mol
14 | SAKEIASGTFLLDNGATLTVTSIKYDPETGKVSIPVELTVYVPKIDPNDPNKPTIEPFTFKITFTFKVDSAG [r14_888_TrMRF] | 2.51 ± 0.073 kcal/mol
15 | SAGGGSISPAIVAALRAAGASLEEIVAYLNEQGYPIASVLGEEEHHHHHHITLLLPETGETVTVELHSAGGS [r8_179_JUSTAS] | 2.43 ± 0.068 kcal/mol
16 | SGMIKVSVEEKELKDGTKLYTITVEHPDPEVAKETAEKIVKEKFPKNYKVETKLTESGKVIAPVIVPKKKSA [r9_646_JUSTAS] | 0.379 ± 0.09 kcal/mol
17 | SAGGSAFKLTFKNMKIESKMPNPDGQKMIRIEWPDGLSIMIHPPNAIWIMPKDDPEMPPGDMVPIDSAGGSA [r15_692_TrROS] | 0.695 ± 0.25 kcal/mol
18 | SAGGSAGGSAGGSMKIELPEGAEITEIKKLPNGTYEMTIRVDGKELKIRFVDGKLVIVPSAGGSAGGSAGGS [r4_280_TrROS_Hall] | 3.62 ± 0.14 kcal/mol
19 | SMKSEEEKKAKELKKQKPVIVFDKETGKITVYDAKTGKKIEIEVKVKKTKDGKVEPLTEEELKKLLKKLASA [r9_1056_TrROS_Hall] | 1.63 ± 0.077 kcal/mol
20 | SAGGAPSTFTSTSPEGETTVTTTTTYYPETGTTTTTTTTTNPATGTSTTTTTTTPVAPPQPPLLEAGASAGG [r13_694_JUSTAS] | 0.827 ± 0.056 kcal/mol
21 | SAMRAAVLAAAEEITAHPEFEAVGISPDGTFLFRNPATGKVYRIRLEAEDDGEGVIVRVPSIEPLDAPDSAG [r14_20_TrMRF] | 1.43 ± 0.028 kcal/mol

Row | Sequence | folding stability dG unfold
22 | SAGGSAGPSSKPIPLYVLFLEVTKPGGEKLPLVKLVKSPEEALKIAEEIASKGYEVKLVLAPASEISAGGSA [r15_906_TrMRF] | 2.74 ± 0.081 kcal/mol
23 | SRRLITIEITVTLPGNPEVTLSKTLKLPTEDVEEAIEKAKKEFKEEFGIPEDVPVKIEVTVSTSDGDPSLQS [r1_149_JUSTAS] | 2.53 ± 0.18 kcal/mol
24 | SAGGGMMTLVTLEITIPKPPDPKTGKSRPLPLTLEFEVEADDPEALEERVEEELEKIGIPEEARKLLSAGGS [r16_40_JUSTAS] | 0.471 ± 0.092 kcal/mol
25 | SAGGSAGGSAGGDKNKPPKLKVKLKIEFPFTLPDGVKVRLEVEIDLDSDVIEPRAEVIDSSAGGSAGGSAGG [r7_213_TrMRF] | 1.76 ± 0.035 kcal/mol
26 | SAGGGLTEEQLEEEAREVAERVEKEFAEATGIEPVEILSVEVFPDGTVRITLRFKGKGGLVTYTIPLSAGGS [r16_622_TrMRF] | 3.16 ± 0.096 kcal/mol
27 | SALEIEIEQDEDGNMRISVYLPGWKPIEEQPVPPGDGMKTFIIKLPDRVLMITFTNGGIEPNPVPLNDISAG [r14_403_TrROS] | 2.44 ± 0.17 kcal/mol
28 | SAGGSAGGSAMKVALVERPDGSPFLLVFDPDRPGVALLRPLDTDEVEVLPSELLKNLKITASAGGSAGGSAG [r3_451_TrMRF] | -0.509 ± 0.17 kcal/mol
29 | SAGGPSVDIDPRLNEDGTPYVLATLHIVPVHSDGSSSSADIPVVFDSLDDLLAFVKAISPGSAKVSLSAGGS [r16_652_TrMRF] | 0.42 ± 0.067 kcal/mol
30 | SAGGSAMPDMTAEELAAEVAKKLPPGEKVLIKIRNKNGETKTFELGEDISDLPADEVTEIEIEVLPSAGGSA [r15_50_TrROS_Hall] | 0.248 ± 0.073 kcal/mol
31 | SAGGSAGGSAGNPPNKPKPIIKVVPFRYRFYIPETGSVIEIDIYVFEDDTVKIKIKTYPLSAGGSAGGSAGG [r11_883_TrMRF] | 3.73 ± 0.28 kcal/mol
32 | SAGGSAGGSAGSTTTTITDPANGEAYEVTSDPNGGATITNPNSSQVYYKNADTITSVGASSAGGSAGGSAGG [r17_476_JUSTAS] | -0.263 ± 0.087 kcal/mol
33 | STIRITLPKEELSPELLEALAKAPGLSEEELRDRLTVEEVDGEVVITLSPEVLEELRKRNPELLEALEKASA [r9_160_TrROS_Hall] | 3.32 ± 0.093 kcal/mol
34 | SAGGSTLEEIKAAVIKAAEAGEKEAEIEAPLPDGGKLRILKGGVIEFIPEDGVPKRLKISVSEIKVSAGGSA [r2_97_TrMRF] | -1.2 ± 0.75 kcal/mol
35 | SAGGSAGGKPKMTFPITDIYPPPGGGNVFIRIQSDDKPREFPFPNLENLEIEKDPEDGTVKIKWSAGGSAGG [r6_806_TrROS] | 0.129 ± 0.36 kcal/mol
36 | SAGGSAMEIKTLETKTVKTEKLPDGSTKVTTTYKTVDPSGGKTSNYIKTTLYAPDGKKTSTEVKEKSAGGSA [r15_758_JUSTAS] | 0.355 ± 0.048 kcal/mol
37 | SAGGSAGGSAGFKLPPGQEVVFQVSIKLPDGPTQTLEDLENMPPENIDFLEIEISWVPVDSAGGSAGGSAGG [r11_899_TrROS] | 1.09 ± 0.14 kcal/mol
38 | SAGGSAGGSSMPTMTKVGDTWLYYDPSTDIKRPATVTVDDGKITIDGDSGTTVYDGDLVIETSSAGGSAGGS [r12_683_JUSTAS] | 0.389 ± 0.057 kcal/mol
39 | SAGGSAGGSKLKIPIIRKFKPDEPLPTAEDVKAILEELGLDIKEVKVTYFPEYGYAIAEVEVSSAGGSAGGS [r12_1052_TrMRF] | 1.57 ± 0.033 kcal/mol
40 | SAGGSAGGSAGGMNPVSKVTKHSGPNGQVTETTTYFDPASGKTTVTYTDLVTGTTSTISTSAGGSAGGSAGG [r11_1063_JUSTAS] | -0.579 ± 0.047 kcal/mol
41 | SAGGSAGGSAKWIYIMLPFPEGQKVEIEYPNGRKHSYEQTPDGMLMIRVRRPNAPIKIKIKSAGGSAGGSAG [r3_334_TrROS] | 1.9 ± 0.13 kcal/mol
42 | SGFKVYIPDADLDAAVAVAKALVEKGYDTLLVDSPEVLKAIKEAIPDVKVEPVPVLPPVPPLPGEAEALFSA [r9_639_TrMRF] | 0.71 ± 0.021 kcal/mol

Test: folding stability dG unfold from chymotrypsin proteolysis; higher = more stable
Outline: as §1

Row | Sequence | folding stability dG unfold
43 | SAGGSAGGSMSKPVKITTTRDPNSNVITIQVESEEDVIEFAKKKGINIKIEPTSENTYKLTLESAGGSAGGS [r12_810_JUSTAS] | -0.0494 ± 0.36 kcal/mol
44 | SAGGSAGGSDFPVKILEVEFHPNGSITIVIQAPDGWYIKATFHVPPNGNVKMSIELIPDPDAISAGGSAGGS [r20_23_TrROS] | 4 ± 0.15 kcal/mol
45 | SAGGPMRRVKVEIKDPDGGKIEIDDVYVPDNSVWAKIFLPDLGREIPFPFDTPDQAVEWIKDFVLQLSAGGS [r16_736_TrROS] | 1.15 ± 0.21 kcal/mol
46 | SAKMVVLKAYFKGDGDEIKEIADAIDFPYTIEKIPDYPDYYIATFVFPTEEKAPEWEKALKEKGYIVEGSAG [r14_745_TrMRF] | 2.48 ± 0.037 kcal/mol
47 | SAGGSAGGSAGGEEKEVYLVRFRRPDGSEVTVVAPWEDLEEIVKSLPEAVEVEVEKAPLSAGGSAGGSAGGS [r10_437_TrMRF] | 2.22 ± 0.089 kcal/mol
48 | SFNISVSVEPDDDKYKVTIWIQVDPEEFPGQPPTPSVIEEIARELARDWGIKEVEIEPPPNGYYRHTFPLSA [r9_883_TrROS] | 2.25 ± 0.057 kcal/mol
49 | SAGGSAGGSAGKIELTNIQVWPGPNGRPWISMTISFPDGPVTIWIPFDNPDNIEIEIKPGSAGGSAGGSAGG [r17_64_TrROS] | 3.02 ± 0.043 kcal/mol
50 | SAGGSAGGSAPRVRYRRRVLVYFPADGSVVPVVLEVSPGPLTLRLDLPAASFPPVRIAPLGSAGGSAGGSAG [r3_454_TrMRF] | 2.58 ± 0.098 kcal/mol
51 | SAGGKKIEIKEGDTVKLKNATITLNGKTFKIKDAEAKVVKVDKKKKKVIIEITLKNGKKETFVFDIKSAGGS [r8_215_TrROS_Hall] | 3.331 ± 0.026 kcal/mol
52 | SAGGSAGGSAGEFEIIIPPGVAEERPELLEEIRDRFKPLGLEVEVEYIPGEGYVRVKVKGSAGGSAGGSAGG [r11_357_TrMRF] | 1.64 ± 0.036 kcal/mol
53 | SAGGSAGGSAGDPVLTVTLLDDNHPVTLTYHPGEKTVTVSVYPLKSGKVLGTVTVPASELSAGGSAGGSAGG [r11_231_TrMRF] | 0.37 ± 0.13 kcal/mol
54 | SAGGSAMVLVRIKLKHPEREEVIEVPAGELLEILEHPELNEHWEIVEIEAREVPPEFVEPEELEEESAGGSA [r15_460_TrMRF] | 0.896 ± 0.18 kcal/mol
55 | SAGYEWVRELAKKKGFKDIKIEDVQPQRPPDGMEYMHVRIEVQHPGKKREVDIWMRPDNIEEALEQALKSAG [r5_549_TrROS] | 0.993 ± 0.08 kcal/mol
56 | SAKEIASGTFLLDNGATLTVTSIKYDPETGKVSIPVELTVYVPKIDPNDPNKPTIEPFTFKITFTFKVDSAG [r14_888_TrMRF] | 3.78 ± 0.026 kcal/mol
57 | SAGGGSISPAIVAALRAAGASLEEIVAYLNEQGYPIASVLGEEEHHHHHHITLLLPETGETVTVELHSAGGS [r8_179_JUSTAS] | 3.029 ± 0.028 kcal/mol
58 | SGMIKVSVEEKELKDGTKLYTITVEHPDPEVAKETAEKIVKEKFPKNYKVETKLTESGKVIAPVIVPKKKSA [r9_646_JUSTAS] | 1.1 ± 0.15 kcal/mol
59 | SAGGSAFKLTFKNMKIESKMPNPDGQKMIRIEWPDGLSIMIHPPNAIWIMPKDDPEMPPGDMVPIDSAGGSA [r15_692_TrROS] | 0.782 ± 0.28 kcal/mol
60 | SAGGSAGGSAGGSMKIELPEGAEITEIKKLPNGTYEMTIRVDGKELKIRFVDGKLVIVPSAGGSAGGSAGGS [r4_280_TrROS_Hall] | 3.51 ± 0.057 kcal/mol
61 | SMKSEEEKKAKELKKQKPVIVFDKETGKITVYDAKTGKKIEIEVKVKKTKDGKVEPLTEEELKKLLKKLASA [r9_1056_TrROS_Hall] | 1.19 ± 0.28 kcal/mol
62 | SAGGAPSTFTSTSPEGETTVTTTTTYYPETGTTTTTTTTTNPATGTSTTTTTTTPVAPPQPPLLEAGASAGG [r13_694_JUSTAS] | 1.08 ± 0.047 kcal/mol
63 | SAMRAAVLAAAEEITAHPEFEAVGISPDGTFLFRNPATGKVYRIRLEAEDDGEGVIVRVPSIEPLDAPDSAG [r14_20_TrMRF] | 1.92 ± 0.051 kcal/mol
